Type in all cases: binding
For assay [1], the target named is T1, pSYK in PHTX 95L xenografts (Homo sapiens, UniProt P43405).
T1 construct: from tissue; host or cells: FFPE sections of PHTX-95L primary human lymphoma xenografts grown in NOD SCID mice
The experiment in a line: Quantitative pSYK IHC on PHTX 95L xenografts (Positive Pixel Count). The method, then:
Final selection of antibody was performed by qualitative and quantitative assessment of IHC results of staining pSYK in PHTX 95L xenografts from untreated or SYK inhibitor-treated mice described above using the Ventana Discovery XT autostainer and the same staining protocols as previous assays (see FIG. 2).
Quantitative analysis was performed with Aperio Spectrum analysis following Postitive Pixel Count v9 Algorithm at 20× magnification. The Positive pixel analysis was used rather than a signal-to-noise ratio because of program difficulties defining true cytoplasmic staining from background for positive amounts below 5%. The table below has the results of the quantitive analysis.

The target of assay [2] is T2, pSYK in PHTX95L xenograft (Homo sapiens, UniProt P43405).
T2 construct: from tissue; host or cells: FFPE sections of PHTX-95L primary human lymphoma xenografts grown in NOD SCID mice
The experiment in a line: IHC on Leica BOND RX, PHTX95L xenograft background. The conditions noted are these: MIL81-1-8 at 1:3200, 2175 at 1:25. The method, then: Similar results were obtained with the MIL81-1-8 subclone using an automated protocol on a Leica automated stainer. pSYK protein levels in Formalin-Fixed, Paraffin-Embedded tissues were incubated with MIL81-1-8 antibody ([…]) for 30 minutes on the Leica Microsystems (Wetzlar, Germany) BOND RX automated stainer. Antibodies were incubated with a rabbit anti-goat HRP secondary antibody (Leica Laboratories) and developed with the 3,3′-diaminobexidine (DAB) substrate map system. Slides were counterstained with hematoxylin and imaged using the Aperio whole slide scanning system (XT). MIL81-1-8 antibody was compared to commercial pSYK antibody Epitomics pSYK Catalog No. 2175-1 (Y525/526) for staining specificity. […] A detectable trend toward reduction of pSYK staining also was seen by the anti-pSYK MIL81-1-8 antibody in medium- and low-expressing xenograft samples from mice treated with a SYK inhibitor (FIGS. 5 to 7).

Assay [3] addresses T3, pSYK in HBL1 and Ly10 xenografts (Homo sapiens, UniProt P43405).
T3 construct: from tissue; host or cells: FFPE HBL1 and OCI-LY10 xenografts in SCID mice
Description: IHC on medium- and low-expressing xenografts. How it is done:
An IHC assay using the MIL81-1-8 antibody was developed to evaluate pSYK expression in HBL1 xenograft tissue and several primary human tissue xenografts (PHTX-95L, OCI LY10) derived from diffuse large B-cell lymphoma (DLBCL) patient samples in female SCID mice. pSYK protein levels in Formalin-Fixed, Paraffin-Embedded (FFPE) tissues were assessed on […] thick sections and incubated with MIL81-1-8 antibody ([…]) for 1 hour on the Ventana Medical Systems (Tucson, Ariz.) Discovery XT automated stainer. Antibodies were incubated with OmniMap goat anti-rabbit HRP secondary antibody (Ventana Medical Systems) for 16 minutes and developed with the 3,3′-diaminobexidine (DAB) substrate map system. Slides were counterstained with hematoxylin and imaged using the Aperio whole slide scanning system (XT).
Similar results were obtained with the MIL81-1-8 subclone using an automated protocol on a Leica automated stainer. pSYK protein levels in Formalin-Fixed, Paraffin-Embedded tissues were incubated with MIL81-1-8 antibody ([…]) for 30 minutes on the Leica Microsystems (Wetzlar, Germany) BOND RX automated stainer. Antibodies were incubated with a rabbit anti-goat HRP secondary antibody (Leica Laboratories) and developed with the 3,3′-diaminobexidine (DAB) substrate map system. Slides were counterstained with hematoxylin and imaged using the Aperio whole slide scanning system (XT). […]

Assay [4] deals with T4, pSYK in pervanadate-treated WSU-DLCL cells, PHTX-95L xenograft, DLBCL TMA core, normal spleen (Homo sapiens, UniProt P43405).
T4 construct: from tissue; host or cells: pellet of pervanadate-treated WSU-DLCL cells; PHTX-95L xenograft; DLBCL tissue microarray core; normal spleen
The experiment in a line: Validation of MIL81-1-8 IHC specificity. The method, then: Validation of the specificity MIL81-1-8 on lymphoma cells used a pellet of pervanadate-treated WSU-DLCL cells, PHTX-95L xenograft or a TMA core of a DLBCL tumor. When peptide immunogen was added to the antibody prior to incubation with the tissue, the pSYK IHC staining was blocked (FIG. 9). Another validation of the specificity of MIL81-1-8 staining used phosphatase treatment of the slides prior to antibody incubation. […] Due to this nuclear staining of phosphatase-treated samples, staining of only nuclei in samples was generally judged to be off-target and thus pSYK-negative.

The target in assay [5] is T5, pSYK Y525/6 in DLBCL tissue biopsies (Homo sapiens, UniProt P43405).
T5 construct: from tissue; host or cells: FFPE human DLBCL biopsies; one normal lymph node
The experiment in a line: IHC on recently biopsied DLBCL tissues.

B1: Subclone 1-8: rabbit monoclonal anti-pSYK Y525/526 antibody from hybridoma subclone of multiclone 81-1 (antibody)
heavy: QSVEESGGRLVTPGTPLTLTCTVSGIDLNSYIMSWVRQAPGKGLEWIGIISRRGNTYYASWPKGRFTISKTSTTVDLKITSPTTEDTATYFCARAYLYTSGTMSVWGPGTLVTVSSGQPKAPSVFPLAPCCGDTPSSTVTLGCLVKGYLPEPVTVTWNSGTLTNGVRTFPSVRQSSGLYSLSSVVSVTSSSQPVTCNVAHPATNTKVDKTVAPSTCSKPTCPPPELLGGPSVFIFPPKPKDTLMISRTPEVTCVVVDVSQDDPEVQFTWYINNEQVRTARPPLREQQFNSTIRVVSTLPIAHQDWLRGKEFKCKVHNKALPAPIEKTISKARGQPLEPKVYTMGPPREELSSRSVSLTCMINGFYPSDISVEWEKNGKAEDNYKTTPAVLDSDGSYFLYSKLSVPTSEWQRGDVFTCSVMHEALHNHYTQKSISRSPGK
light: ADIVMTQTPSPVEAAVGGTVTIKCQASESISSYLSWYQQKPGQPPKLLIYRASTLVSGVPSRFKGSGSGTDFTLTISDLECADAATYYCQHTYFGSDYVGGFGGGTEVVVKGDPVAPTVLIFPPAADQVATGTVTIVCVANKYFPDVTVTWEVDGTTQTTGIENSKTPQNSADCTYNLSSTLTLTSTQYNSHKEYTCKVTQGTTSVVQSFNRGDC
In the case of B1, in assay [1] (20× magnification, Positive Pixel Count v9), the “ratio of Percent Positive Pixel per total Pixel, PHTX 95L Untreated” value is reported as 25.19%. Moreover, the “ratio of Percent Positive Pixel per total Pixel, PHTX95L SYK Inhibitor” value in assay [1] (mice treated with SYK inhibitor (Compound A), 20× magnification) is recorded as 11.30%. The “IHC performance compared with Epitomics 2175-1” value in assay [1] (stains of PHTX-95L xenografts, intensity and signal to noise ratio, listed as MIL81-1-8) was “performing best and best”. Also, in assay [2], the IHC background entry was “minimal background”. The “Detection of pSYK / distinction of untreated and Syk-inhibitor treated tumors” value in assay [3] is listed as “able to specifically detect”. Besides, in assay [4] (except nuclear staining of normal spleen), the “pSYK IHC staining after phosphatase treatment of slides” value was “eliminated epitopes”. Also, the “pSYK IHC staining after adding peptide immunogen to the antibody” value in assay [4] (peptide blocking) is recorded as “blocked”. Moreover, in assay [5], the “Staining in recently biopsied DLBCL tissues versus Epitomics 2175-1” value was “much stronger and cleaner”.

For the origin of these results see patent publication US20180066068A9, “ANTI-PSYK ANTIBODY MOLECULES AND USE OF SAME FOR SYK-TARGETED THERAPY” (Millennium Pharmaceuticals, Inc., priority 2014, published 2018).
